# Target: the molecule itself
# Assay: SEC-MALS; protein conjugate analysis; 50 µg protein on Superdex 200 Increase 10/300 in 0.2% DM, 0.3 M NaCl, 0.5 mM TCEP, 5% glycerol, 20 mM Tris pH 7.5; protein-detergent complex
row,Protein,stoichiometry N
1,"human DM20 (shorter isoform of myelin proteolipid protein) (natural protein, UniProt P60201-2 1-242, looked up, DM20, minor isoform of human PLP (26 kDa), lacks 35 residues in the intracellular loop; Studied in a detergent complex (DM or UDM); source: Sf21 insect cells (baculovirus), solubilized in DM or UDM, purified (IMAC, TEV cleavage, reverse IMAC, SEC); not shown: eGFP, C-terminal, cleaved; His8, C-terminal, cleaved) MGLLECCARCLVGAPFASLVATGLCFFGVALFCGCGHEALTGTEKLIETYFSKNYQDYEYLINVIHAFQYVIYGTASFFFLYGALLLAEGFYTTGAVRQIFGDYKTTICGKGLSATFVGITYALTVVWLLVFACSAVPVYIYFNTWTTCQSIAFPSKTSASIGSLCADARMYGVLPWNAFPGKVCGSNLLSICKTAEFQMTFHLFIAAFVGAAATLVSLLTFMIAATYNFAVLKLMGRGTKF",2
2,"human myelin proteolipid protein (natural protein, UniProt P60201-1 1-277, looked up, myelin proteolipid protein (PLP), human, 30 kDa; cloned from acc; NM_000533; Studied in a detergent complex (DM, UDM or d-DDM); also called PLP; myelin PLP; source: Sf21 insect cells (baculovirus), solubilized in DM or UDM, purified (IMAC, TEV cleavage, reverse IMAC, SEC); not shown: eGFP, C-terminal, cleaved; His8, C-terminal, cleaved) MGLLECCARCLVGAPFASLVATGLCFFGVALFCGCGHEALTGTEKLIETYFSKNYQDYEYLINVIHAFQYVIYGTASFFFLYGALLLAEGFYTTGAVRQIFGDYKTTICGKGLSATVTGGQKGRGSRGQHQAHSLERVCHCLGKWLGHPDKFVGITYALTVVWLLVFACSAVPVYIYFNTWTTCQSIAFPSKTSASIGSLCADARMYGVLPWNAFPGKVCGSNLLSICKTAEFQMTFHLFIAAFVGAAATLVSLLTFMIAATYNFAVLKLMGRGTKF",2
